In patent US20110064751A1 (Hoffmann-La Roche, published 2011):
Positions count from the first letter of the chain named.

T1: A1 domain of tenascin (TNC-A1), immobilized domain of Example 1 (UniProt P24821 1072-1162, limits assumed)
T1 construct: domain: A1; also called TNC-A1 domain
T1 sequence (looked up): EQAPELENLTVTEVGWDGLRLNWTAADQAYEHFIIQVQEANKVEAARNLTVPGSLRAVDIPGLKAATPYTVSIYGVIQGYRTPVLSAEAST

T2: Human TNC-A2 + avi-tag + his6-tag (human, biotinylated in vivo at the avi-tag)
T2 construct: also called hu TNC A2; A2 domain of human tenascin
T2 chain: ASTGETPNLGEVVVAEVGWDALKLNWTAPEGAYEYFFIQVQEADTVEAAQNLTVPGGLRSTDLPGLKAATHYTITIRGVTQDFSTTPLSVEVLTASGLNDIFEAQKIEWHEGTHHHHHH

B1: 28H1 Fab (Fab, V domains shown)
VH: EVQLLESGGGLVQPGGSLRLSCAASGFTFSSHAMSWVRQAPGKGLEWVSAIWASGEQYYADSVKGRFTISRDNSKNTLYLQMNSLRAEDTAVYYCAKGWLGNFDYWGQGTLVTVSS
VL: EIVLTQSPGTLSLSPGERATLSCRASQSVSRSYLAWYQQKPGQAPRLLIIGASTRATGIPDRFSGSGSGTDFTLTISRLEPEDFAVYYCQQGQVIPPTFGQGTKVEIK
notes: also called clone 28H1
B2: 29B11 Fab (Fab, V domains shown)
VH: EVQLLESGGGLVQPGGSLRLSCAASGFTFSSYAMSWVRQAPGKGLEWVSAIIGSGGITYYADSVKGRFTISRDNSKNTLYLQMNSLRAEDTAVYYCAKGWFGGFNYWGQGTLVTVSS
VL: B1 VL with S30T, R31S, I50N, G51V, A52G, T54R, Q93I, V94M, I95L
notes: also called clone 29B11
B3: 16F8 Fab (Fab, V domains shown)
VH: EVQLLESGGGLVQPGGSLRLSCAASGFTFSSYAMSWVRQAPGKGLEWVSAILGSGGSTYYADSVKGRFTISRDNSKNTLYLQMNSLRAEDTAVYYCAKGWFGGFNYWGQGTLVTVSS
VL: B1 VL with S30T, R31S, I50N, G51V, A52G, T54R, Q93I, V94M, I95L
notes: also called clone 16F8
B4: 22A3 Fab (Fab, V domains shown)
VH: B2 VH with G56S
VL: B1 VL with S30T, R31S, I50N, G51V, A52G, T54R, Q93I, V94M, I95L
notes: also called clone 22A3
B5: 5F1 Fab (Fab, V domains shown)
VH: B2 VH with G53S, G56A, I57S
VL: B1 VL with S30T, R31S, I50N, G51V, A52G, T54R, Q93I, V94M, I95L
notes: also called clone 5F1
B6: 19G1 Fab (Fab, V domains shown)
VH: B2 VH with G53S, I57L
VL: B1 VL with S30T, R31S, I50N, G51V, A52G, T54R, Q93I, V94M, I95L
notes: also called clone 19G1
B7: 14B3 Fab (Fab, V domains shown)
VH: B2 VH with I52L, G53A, G56A
VL: B1 VL with S30T, R31S, I50N, G51V, A52G, T54R, Q93I, V94M, I95L
notes: also called clone 14B3
B8: 5B8 Fab (Fab, V domains shown)
VH: B2 VH with I52W, S54G, G56R, I57S
VL: B1 VL with S30T, R31S, I50N, G51V, A52G, T54R, Q93I, V94M, I95L
notes: also called clone 5B8
B9: O3C9 Fab (Fab, V domains shown)
VH: B2 VH with Y32F, A40S, G56S, I57N
VL: B1 VL with S30T, R31S, I50N, G51V, A52G, T54R, Q93I, V94M, I95L
notes: also called clone O3C9
B10: 4B9 Fab (Fab, V domains shown)
VH: B2 VH with G56A, I57S
VL: B1 VL with S30T, R31S, I50N, G51V, A52G, T54R, Q93I, V94M, I95L
notes: also called clone 4B9
B11: 16F1 Fab (Fab, V domains shown)
VH: B2 VH with A50G
VL: B1 VL with S30T, R31S, I50N, G51V, A52G, T54R, Q93I, V94M, I95L
notes: also called clone 16F1
B12: 20G8 Fab (Fab, V domains shown)
VH: B2 VH with G56S, I57R
VL: B1 VL with S30T, R31S, I50N, G51V, A52G, T54R, Q93I, V94M, I95L
notes: also called clone 20G8
B13: O2D7 Fab (Fab, V domains shown)
VH: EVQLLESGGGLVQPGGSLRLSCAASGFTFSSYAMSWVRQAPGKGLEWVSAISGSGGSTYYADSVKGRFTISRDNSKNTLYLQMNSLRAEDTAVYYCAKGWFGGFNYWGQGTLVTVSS
VL: EIVLTQSPGTLSLSPGERATLSCRASQSVTSSYLAWYQQKPGQAPRLLINVGSRRATGTPDRFSGSGSGTDFTLTISRLEPEDFAVYYCQQAIMLPPTFGQGTKVEIK
notes: also called clone O2D7
B14: F16 IgG (antibody, V domains shown)
VH: EVQLLESGGGLVQPGGSLRLSCAASGFTFSRYGMSWVRQAPGKGLEWVSAISGSGGSTYYADSVKGRFTISRDNSKNTLYLQMNSLRAEDTAVYYCAKAHNAFDYWGQGTLVTVSS
VL: SSELTQDPAVSVALGQTVRITCQGDSLRSYYASWYQQKPGQAPVLVIYGKNNRPSGIPDRFSGSSSGNTASLTITGAQAEDEADYYCNSSVYTMPPVVFGGGTKLTVL
notes: The light chain entry is named generally (F16, light chain); also called the IgG molecule; copies: 2 + 2
B15: F16 Fab fragment (Fab, V domains shown)
VH: B14 VH
VL: SSELTQDPAVSVALGQTVRITCQGDSLRSYYASWYQQKPGQAPVLVIYGKNNRPSGIPDRFSGSSSGNTASLTITGAQAEDEADYYCNSSVYTMPPVVFGGGTKLTVLG
notes: also called monovalent Fab fragment of F16
B16: 2B10_6A12 Fab (Fab, V domains shown)
VH: QVQLVQSGAEVKKPGSSVKVSCKASGGTFSSYAISWVRQAPGQGLEWMGVIIPILGTANYAQKFQGRVTITADKSTSTAYMELSSLRSEDTAVYYCARLYGYAYYGAFDYWGQGTTVTVSS
VL: DIQMTQSPSSLSASVGDRVTITCRASQGIRNDLGWYQQKPGKAPKRLIYAASSLQSGVPSRFSGSGSGTEFTLTISSLQPEDFATYYCLQNGLQPATFGQGTKVEIK
notes: also called clone 2B10-6A12
B17: 2B10_C3A6 Fab (Fab, V domains shown)
VH: B16 VH with V50G, L55F
VL: B16 VL with D32V, A50D, A51S, S65G
notes: also called clone 2B10_C3A6
B18: 2B10_C3B6 Fab (Fab, V domains shown)
VH: B16 VH with V50A, T57I
VL: B16 VL
notes: also called clone 2B10_C3B6
B19: 2B10_6H10 Fab (Fab, V domains shown)
VH: B16 VH with V50G, L55F
VL: B16 VL with D32V, Y49Q, S52T, S65G
notes: also called clone 2B10-6H10
B20: 2B10_O1F7 Fab (Fab, V domains shown)
VH: B16 VH with V50G, L55F
VL: B16 VL with D32V, A50D, S65G
notes: also called clone 2B10_O1F7
B21: 2B10_O7D8 Fab (Fab, V domains shown)
VH: B16 VH with V50G, L55F
VL: B16 VL with G28S, D32V, A50D, A51V, S65G
notes: also called clone 2B10_O7D8
B22: 3F2 Fab (Fab, V domains shown)
VH: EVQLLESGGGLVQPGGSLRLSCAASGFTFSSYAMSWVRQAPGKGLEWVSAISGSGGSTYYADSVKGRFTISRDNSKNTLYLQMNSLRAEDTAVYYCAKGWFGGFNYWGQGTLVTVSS
VL: B13 VL with S14Y, T59I, A92G
notes: Fab fragment; also called clone 3F2
B23: 4G8 Fab (Fab, V domains shown)
VH: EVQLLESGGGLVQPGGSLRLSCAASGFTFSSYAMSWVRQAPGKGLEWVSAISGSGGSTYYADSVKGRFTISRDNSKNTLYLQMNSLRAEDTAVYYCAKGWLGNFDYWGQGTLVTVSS
VL: B1 VL
notes: Fab fragment; also called clone 4G8
B24: 4B3 Fab (Fab, V domains shown)
VH: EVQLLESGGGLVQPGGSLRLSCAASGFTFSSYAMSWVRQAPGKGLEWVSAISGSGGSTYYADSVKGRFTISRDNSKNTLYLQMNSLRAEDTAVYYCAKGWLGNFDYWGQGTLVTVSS
VL: B1 VL with R31S, S32N, I50Y, S53Y, T54I
notes: Fab fragment; also called clone 4B3

These binders were tested against T3, DPPIV expressed on HEK293 or CHO cells (Homo sapiens (Human), UniProt P27487 1-766) (assay: binding to DPPIV-expressing HEK293 or CHO cells).
T3 construct: also called close homologue of FAP

Row | binding result | Binder
1 | no binding | B1
2 | no binding | B2
3 | no binding | B3
4 | no binding | B4
5 | no binding | B5
6 | no binding | B6
7 | no binding | B7
8 | no binding | B8
9 | no binding | B9
10 | no binding | B10
11 | no binding | B11
12 | no binding | B12
13 | no binding | B13

Each binder was assayed against T1, A1 domain of tenascin (TNC-A1), … (assay: SPR (BIACORE), TNC-A1 domain immobilized on the chip).

Row | Kd | increase of affinity attributed to bivalency (IgG against Fab) | Binder
14 | 2.6 nM | 20 fold | B14
15 | 50 nM |  | B15

The binders below were run against T4, Human FAP ectodomain + poly-lys-tag + his6-tag (human, UniProt Q12884 27-760) (assay: SPR (ProteOn XPR36), purified Fab, monovalent binding).
T4 construct: also called hu FAP

Row | Kd | Binder
16 | 0.2 nM | B1
17 | 0.035 nM | B2
18 | 0.301 nM | B3
19 | 0.034 nM | B4
20 | 0.243 nM | B5
21 | 0.076 nM | B6
22 | 0.377 nM | B7
23 | 0.69 nM | B8
24 | 0.16 nM | B9
25 | 0.157 nM | B10
26 | 0.193 nM | B11
27 | 0.069 nM | B12
28 | 0.619 nM | B13

These binders were tested against T5, Murine FAP ectodomain + poly-lys-tag + his6-tag (murine, UniProt P97321 27-761) in the same assay as above.
T5 construct: also called mu FAP

Row | Kd | Binder
29 | 0.009 nM | B1
30 | 0.436 nM | B2
31 | 3.8 nM | B3
32 | 0.655 nM | B4
33 | 4.1 nM | B5
34 | 2.6 nM | B6
35 | 3.8 nM | B7
36 | 3.2 nM | B8
37 | 3.7 nM | B9
38 | 3.3 nM | B10
39 | 3.4 nM | B11
40 | 2.8 nM | B12
41 | 8.3 nM | B13

What follows are binders tested against T6, Cynomolgus FAP (Cynomolgus) in the same assay as above.
T6 construct: construct not described; also called cyno FAP

Row | Kd | Binder
42 | 0.023 nM | B2
43 | 0.522 nM | B4

Target: T2, Human TNC-A2 + avi-tag + his6-tag
Assay: as above
Description: Selections were carried out against E. coli expressed human TNC A2 which was cloned upstream an avi-tag and 6×his-tag (see SEQ ID NO: 57 of Table 5). The antigen was biotinylated in vivo upon expression. Selections have been carried out in solution as described for the primary TNC A2 selections using decreasing concentrations of human TNC A2 ranging from 100 to 2 nM. After identification of affinity-matured clones by ELISA, secondary screenings were carried out using a ProteOn XPR36 biosensor (Biorad) and kinetic rate constants and affinities were determined analyzing affinity-purified Fab preparations on the same instrument.

Row | Kd | Binder
44 | 0.29 nM | B16
45 | 0.497 nM | B17
46 | 0.191 nM | B18
47 | 0.81 nM | B19
48 | 0.056 nM | B20
49 | 0.147 nM | B21

These binders were tested against T4, Human FAP ectodomain + poly-lys-tag + … (assay: first affinity maturation campaign: phage selections, ELISA and BIACORE kinetic screening).

Row | binding result | Binder
50 | binds | B22
51 | binds | B23
52 | binds | B24

The binders below were run against T5, Murine FAP ectodomain + poly-lys-tag + … in the same assay as above.

Row | binding result | Binder
53 | binds | B22
54 | binds | B23
55 | binds | B24
